Assay results: article PMC7144947
Like-named read-outs stand apart in the source and are kept apart here.

What was measured:
Sox11 = Sox11 (UniProt Q7M6Y2 1-395); assay: EMSA
Sox2 [1] = target: T1, Sox2 (Mus musculus, UniProt P48432 1-319); assay: EMSA
Sox1 = Sox1 (Mus musculus, UniProt P53783 1-391); assay: EMSA
Sox2(1-180) = Sox2(1-180) (Mus musculus, UniProt P48432 1-180); assay: EMSA
Sox2-ΔHMG [2] = target: T2, Sox2-ΔHMG (Mus musculus, UniProt P48432 1-319, del41-118); assay: EMSA
Sox2(1-120) = Sox2(1-120) (Mus musculus, UniProt P48432 1-120); assay: EMSA
Sox2(180-319) = Sox2(180-319) (Mus musculus, UniProt P48432 180-319); assay: EMSA
Sox2-ΔRBM [3] = target: T3, Sox2-ΔRBM (Mus musculus, UniProt P48432 1-319, del121-180); assay: EMSA
Sox2-ΔRBM [4] = target: T3, Sox2-ΔRBM; assay: in vitro RIP
Sox2 [5] = target: T1, Sox2; assay: EMSA; remark: listed apart in the source
Sox2-ΔRBM [6] = target: T3, Sox2-ΔRBM; assay: EMSA; remark: listed apart in the source
Sox2-ΔRBM [7] = target: T3, Sox2-ΔRBM; assay: competition
Sox2-HMG = Sox2-HMG (Mus musculus, UniProt P48432 41-120); assay: competition
Sox2-ΔHMG [8] = target: T2, Sox2-ΔHMG; assay: competition
Sox2-ΔHMG [9] = target: T2, Sox2-ΔHMG; assay: competition; remark: listed apart in the source
Sox2(120-319) = Sox2(120-319) (Mus musculus, UniProt P48432 120-319); assay: EMSA

Chain of Sox11 (Q7M6Y2 whole entry): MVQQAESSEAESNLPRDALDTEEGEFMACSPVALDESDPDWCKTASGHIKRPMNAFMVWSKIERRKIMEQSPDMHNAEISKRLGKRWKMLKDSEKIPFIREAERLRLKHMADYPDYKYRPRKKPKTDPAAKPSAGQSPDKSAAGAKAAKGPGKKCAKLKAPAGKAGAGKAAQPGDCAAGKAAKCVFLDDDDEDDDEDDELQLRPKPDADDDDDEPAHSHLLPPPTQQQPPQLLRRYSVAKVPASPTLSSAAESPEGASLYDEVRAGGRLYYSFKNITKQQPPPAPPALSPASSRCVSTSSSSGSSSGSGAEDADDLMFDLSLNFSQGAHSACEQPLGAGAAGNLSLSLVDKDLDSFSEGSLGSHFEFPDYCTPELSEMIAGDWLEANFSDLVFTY
Chain of Sox1 (P53783 whole entry): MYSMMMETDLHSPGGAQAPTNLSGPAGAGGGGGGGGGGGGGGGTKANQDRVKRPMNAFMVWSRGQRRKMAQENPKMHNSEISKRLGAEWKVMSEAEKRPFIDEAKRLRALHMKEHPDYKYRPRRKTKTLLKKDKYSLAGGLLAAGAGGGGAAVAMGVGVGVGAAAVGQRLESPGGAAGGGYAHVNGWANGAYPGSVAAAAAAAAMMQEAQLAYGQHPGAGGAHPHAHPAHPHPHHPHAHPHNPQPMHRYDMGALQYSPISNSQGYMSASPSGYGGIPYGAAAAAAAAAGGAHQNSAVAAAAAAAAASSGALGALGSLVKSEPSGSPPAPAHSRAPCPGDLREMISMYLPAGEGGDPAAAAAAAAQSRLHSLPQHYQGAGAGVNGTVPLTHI

B1: 12th-15 RNA (ssRNA)
RNA: GCGGCAAGCCCAUACUCGCGUUCAA
B1: no binding (Sox11); binds (Sox2 [1]).

B2: 12th-24 RNA (structured_RNA)
RNA: CGCGGCUUGCCCUAUCGCGGUGUAG
B2: binds (Sox1); binds (Sox2(1-180)); binds (Sox2-ΔHMG [2]). B2: binds (Sox2(1-120)); no binding (Sox2(180-319)); binds (Sox2-ΔRBM [3]). B2: binds (Sox2 [1]).

B3: 12th-24 Mut3 (ssRNA)
RNA: CGCGGCUUGCCCUAUUAUAGUGUAG
B3: binds (Sox2-ΔRBM [4]).

B4: Sox2/Prox1 DNA (dsDNA)
DNA 1: CTAGCATTGTCTGGG
DNA 2: CCCAGACAATGCTAG
B4: binds (Sox11); binds (Sox2 [5]); binds (Sox2-ΔRBM [6]).

B5: Prox1 DNA unlabelled (dsDNA)
DNA 1: CTAGCATTGTCTGGG
DNA 2: CCCAGACAATGCTAG
B5: binds (Sox2-ΔRBM [7]); binds (Sox2-HMG); no binding (Sox2-ΔHMG [8]).

B6: 12th-24 RNA unlabelled (structured_RNA)
RNA: CGCGGCUUGCCCUAUCGCGGUGUAG
B6: binds (Sox2-ΔRBM [7]); no binding (Sox2-HMG); binds (Sox2-ΔHMG [9]).

B7: Dnmt3b RNA (ssRNA)
RNA: CAGCUUUUCCCUGUAGUCAUGAAUG
B7: no binding (Sox11); binds (Sox2(120-319)); binds (Sox2-ΔHMG [2]). B7: no binding (Sox2(180-319)).

B8: Dicer1 RNA (ssRNA)
RNA: CCUGCAGCUCAUGACCCCUGCUUCC
B8: no binding (Sox11); binds (Sox2(120-319)); binds (Sox2-ΔHMG [2]). B8: no binding (Sox2(180-319)).
